According to patent US20220403031A1 (WUXI BIOLOGICS IRELAND, published 2022):

How the values were obtained:
[1] = target: T1, mouse PD-L1 on 293F cells (W315-293F.mPro1.C1) (mouse, UniProt Q9EP73 19-290); assay: FACS competition: antibody titrated against 5 ug/mL mouse PD-1 ECD mFc on mouse PD-L1 293F cells
T1 construct: whole, on cells; also called cell surface mouse PD-L1; Mouse PD-L1-expressing 293F cell
Method: Mouse PD-L1 transfected W315-293F.mPro1.C1 cells were transferred into 96-well U-bottom plates at a density of 2×10⁵ cells/well. […] After washing with 1×PBS/1% BSA, the secondary antibody PE-labeled goat anti-mouse IgG was applied and incubated with cells at 4° C. for 1 hour. […] Human IgG1 and IgG4 isotype antibodies were used as negative control. The cells were then washed and resuspended in 1×PBS/1% BSA. MFI of the cells was measured by a flow cytometer (BD) and analyzed by FlowJo (version 7.6.1).

[2] = target: T1, mouse PD-L1 on 293F cells …; assay: FACS on mouse PD-L1 293F cells
Method: (§1) After washing with 1×PBS/1% BSA, the secondary antibody PE-labeled goat anti-human IgG was applied and incubated with cells at 4° C. for 1 hour. […] Human IgG1 and IgG4 isotype antibodies were used as negative control. The cells were then washed and resuspended in 1×PBS/1% BSA. MFI of the cells was measured by a flow cytometer (BD) and analyzed by FlowJo (version 7.6.1).

[3] = target: PD-L1 (target of the serum stability flow cytometry); assay: flow cytometry binding to PD-L1 of AP3R2-1A3-z12-hIgG1 kept 0, 1, 4, 7 or 14 days in human serum at 37 C
Method: Fresh human serum was prepared from healthy donor by centrifugation. Testing antibody was mixed with serum and ensure the serum content >90% of total volume. The mix aliquots were incubated at 37° C. for 0 day, 1 day, 4 days, 7 days and 14 days, respectively. At the indicated time point the samples were quickly-frozen in liquid nitrogen and stored at −80° C. until analysis. The bindings to PD-L1 of the aliquots at above time points were evaluated by flow cytometry, respectively.

[4] = target: T2, cynomolgus monkey PD-L1 on 293F cells (W315-293F.cynoPro1.2A2) (cynomolgus monkey, UniProt G7PSE7 19-290); assay: FACS affinity on cynomolgus PD-L1 cells, quantitative beads
T2 construct: whole, on cells; also called cell surface monkey PD-L1; cynoPD-L1
Method: Binding affinities of testing antibodies to cell surface human, cynomolgus and mouse PD-L1 were determined by flow cytometry on the engineering cell lines, respectively. The cells were transferred in to 96-well U-bottom plates (BD) at a density of 5×10⁴ cells/well. Antibodies to be tested were 1: 2-fold serially diluted in 1% BSA/1×PBS and incubated with cells at 4° C. for 1 hr. Then, the plates were centrifuged at 1500 rpm for 4 mins and the supernatant was discarded. The secondary antibody, Alexa647 conjugated goat anti-human IgG Fc (Jackson, Cat No. 109-605-098, Lot No. 121363), was added to re-suspend cells and incubated at 4° C. in the dark for 30 min. The cells were washed once and re-suspended in 100 μL 1% BSA/1×PBS, then measured by flow cytometry (BD Canto II) and analyzed by FlowJo. Fluorescence intensity was converted to bound molecules/cell based on the quantitative beads (Quantum™ MESF Kits, Bangs Laboratories). KD value was calculated by Graphpad Prism5.

[5] = target: T3, human PD-L1 on CHO-K1 cells (W315-CHO-K1.hPro1.C11) (human, UniProt Q9NZQ7 19-290); assay: FACS competition on human PD-L1 CHO-K1 cells: titrated W3156 antibody mixed with 0.5 ug/mL biotinylated BMK8.hIgG4 (m5), SA-PE [A]
T3 construct: whole, on cells; also called cell surface human PD-L1; Human PD-L1-expressing CHO-K1 cell
Method: (§2) Human PD-L1 expressing cells W315-CHO-K1.hPro1.C11 were transferred into 96-well U-bottom plates at a density of 1×10⁵ cells/well. […] Then the mixture was added to the cells in 96-well plates and incubated at 4° C. for 1 hour. After washing with 1×PBS/1% BSA, the secondary antibody SA-PE was applied and incubated with cells at 4° C. for 1 hour. The cells were then washed and resuspended in 1×PBS/1% BSA. MFI of the cells was measured by a flow cytometer and analyzed by FlowJo (version 7.6.1).

[6] = target: T2, cynomolgus monkey PD-L1 on 293F cells …; assay: FACS on cynomolgus PD-L1 293F cells
Method: as §1

[7] = target: T3, human PD-L1 on CHO-K1 cells …; assay: FACS competition on human PD-L1 CHO-K1 cells: titrated W3156 antibody mixed with 0.5 ug/mL biotinylated BMK6.hIgG4 (m4), SA-PE [A]
Method: as §2

T3 sequence (Q9NZQ7 19-290): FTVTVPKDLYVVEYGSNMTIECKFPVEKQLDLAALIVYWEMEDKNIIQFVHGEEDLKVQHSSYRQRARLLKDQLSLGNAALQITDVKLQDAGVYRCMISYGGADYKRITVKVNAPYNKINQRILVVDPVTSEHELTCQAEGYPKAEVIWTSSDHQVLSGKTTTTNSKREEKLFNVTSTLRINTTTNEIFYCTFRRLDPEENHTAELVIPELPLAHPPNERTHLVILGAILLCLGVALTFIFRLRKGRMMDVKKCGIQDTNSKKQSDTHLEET
T2 sequence (G7PSE7 entry or part of it): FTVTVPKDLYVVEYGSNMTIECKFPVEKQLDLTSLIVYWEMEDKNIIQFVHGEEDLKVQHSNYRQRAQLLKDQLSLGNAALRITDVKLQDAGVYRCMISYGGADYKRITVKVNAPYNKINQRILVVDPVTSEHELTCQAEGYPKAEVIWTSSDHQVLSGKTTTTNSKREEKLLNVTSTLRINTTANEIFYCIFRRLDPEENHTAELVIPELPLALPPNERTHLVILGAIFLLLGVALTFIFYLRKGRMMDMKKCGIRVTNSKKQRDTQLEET
T1 sequence (Q9EP73 19-290): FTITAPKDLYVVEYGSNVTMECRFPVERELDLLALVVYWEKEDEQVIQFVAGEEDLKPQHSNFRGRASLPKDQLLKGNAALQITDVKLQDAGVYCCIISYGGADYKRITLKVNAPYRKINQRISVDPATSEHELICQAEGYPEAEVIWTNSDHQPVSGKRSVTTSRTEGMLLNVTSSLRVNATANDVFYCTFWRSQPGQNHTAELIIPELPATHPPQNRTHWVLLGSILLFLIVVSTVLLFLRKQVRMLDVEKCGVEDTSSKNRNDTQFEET
Sequence of PD-L1 (target of the serum stability flow cytometry) (chain, as listed by the source): as the sequence (Q9NZQ7 19-290) above

B1: AP3R2-1A3-z12-hIgG1 (Fc fusion)
chain: EVQLVESGGGLVQPGGSLRLSCAASGHFSNLAVNWFRQAPGKERELVAGILWSGGSTFYADSVKGRFTISRGNAENMLYLQMNSLRAEDTAVYYCNTGTNWGQGTLVTVSS
notes: VHH-Fc (hIgG1) fusion of the humanized VHH; also called W3156-AP3R2-1A3-z12-hIgG1; W3156 antibody; not shown: Fc of human IgG1
B1 was tested. Which IC50 [1] did it give?
Its IC50 is 2.14 nM.

And the EC50 [2]?
Its EC50 is 1.24 nM.

And the “EC50 (read off the curve)” value [3]?
Its value is about 0.7 nM.

And the Kd [4]?
The Kd was 7.3 nM.

What about the “IC50 (read off the curve)” value [5] of the same binder?
Its value is about 3 nM.

What about the EC50 [6] of the same binder?
The EC50 was 2.06 nM.

And the “IC50 (read off the curve)” value [7]?
The value was about 3 nM.
